Assay results published in patent US20150291951.

What was measured:
Assay in all cases: cell_activity
[1] = test system: ponzr1 right TALEN +231 (pTAL) (synthetic construct (Xanthomonas TALE-FokI)); settings: pair with P3; zebrafish larvae
[2] = test system: crhr1 right TALEN +231 (synthetic construct (Xanthomonas TALE-FokI)); settings: pair with P7
[3] = test system: crhr1 right TALEN +63 (synthetic construct (Xanthomonas TALE-FokI)); settings: pair with P5, 15 bp spacer; 15-fold over +231
[4] = test system: ponzr1 left TALEN +231 (pTAL) (synthetic construct (Xanthomonas TALE-FokI)); settings: pair with P4; zebrafish larvae
[5] = test system: crhr1 left TALEN +63 (synthetic construct (Xanthomonas TALE-FokI)); settings: pair with P6, 15 bp spacer; 15-fold over +231
[6] = test system: crhr1 left TALEN +231 (synthetic construct (Xanthomonas TALE-FokI)); settings: pair with P8

Sequence: ATCAGAACAACAGTCAGAGAT (double strand) [ponzr1 right half-site]
- activity (% modification (median)) [1]: 5

Sequence: CTGCTGCCGACTGGACCCTGAGGT (double strand) [crhr1 right half-site]
- activity (% modification (median)) [2]: < 1
- activity (% modification (median)) [3]: 7

Sequence: GTGAGCACCCAGCGGACCTCCTCT (double strand) [ponzr1 left half-site]
- activity (% modification (median)) [4]: 5

Sequence: TGCAACACTGAGCTCTGTAAACCT (double strand) [crhr1 left half-site]
- activity (% modification (median)) [5]: 7
- activity (% modification (median)) [6]: < 1
